Measured values reported in patent publication US20190144541A1 (BEIJING DONGFANG BIOTECH, published 2019).

Legend:
PD-1 on PD1-CHO cells = molecular target: T1, PD-1 on PD1-CHO cells; assay: cell ELISA on fixed PD1-CHO cells, anti-human Fc-HRP
T1 construct: also called cell-surface PD-1
Experimental: Firstly, the CHO cell line with stable PD-1 over-expression was made and named PD1-CHO. After coating 96-well plates with gelatin, PD1-CHO cells was digested by trypsin and then stopped. After centrifuging and suspending these cells, the cells were diluted to 2×10⁵ cells/mL, 100 μL per well in 96-well plates, totally 12 well×6 row, namely 2×10⁴ cells/well, and cultured at 5% CO₂, 37° C. overnight. The culture medium were discarded the next day, and the wells were washed one time with 350 μL precooling PBS. Freshly prepared 2% PFA was added to fix 5 minutes, and then PBS was used to wash two times.
The full-length anti-PD-1 antibody of double dilution was added into the cell plates, the diluent is PBS with 0.5% BSA. Sample concentration started from 100 μg/mL, diluting for 8 times, totally 12 gradients of dilution. After incubating for 30 minutes at room temperature, supernatant was discarded, and wells were washed three times with 350 μL pre-cooled PBS. The anti-human Fc-HRP Secondary antibodies diluted at 1:5000 were added, and incubated for 15 minutes at room temperature. After washing three times with 350 μL PBS, 100 μL TMB stain solution was added into each well, staining for 15 to 30 minutes at room temperature. After adding 50 μL2 mol/L H2504 per well to stop the staining, the optical density was read at 450 nm and 630 nm wavelength with the microplate reader.

PD-1-His [1] = molecular target: T2, PD-1-His (UniProt Q15116 25-167, limits assumed); assay: competition ELISA: antibody premixed with 4 ug/mL PD1-His, added to coated PDL1-Fc, bound PD1-His detected with anti-His-HRP
T2 construct: also called antigen PD-1-His; not shown: His tag
T2 sequence (Q15116 25-167 limits assumed): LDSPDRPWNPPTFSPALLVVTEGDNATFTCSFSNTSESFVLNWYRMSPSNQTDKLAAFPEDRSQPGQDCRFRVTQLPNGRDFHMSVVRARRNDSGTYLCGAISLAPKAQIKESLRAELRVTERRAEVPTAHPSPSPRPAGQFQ
Experimental: PDL1-Fc in pH9.6 carbonate buffer solution was used for coating plates at 4° C. for overnight. After washing five times with PBST, the wells were blocked for two hours with 1% BSA-PBS at 37° C. […] After incubating at 37° C. for one hour, the wells were washed five times with PBST, and then the mouse anti-His antibody HRP labeled with 1% BSA-PBS diluted were added. After incubating at 37° C. for one hour, the wells were stained with TMB stain solution kit, 100 μL/well, for 8 minutes at room temperature. The reaction was stopped with 50 µL of 10% H₂SO₄/well. The optical density was read at 450 nm and 630 nm wavelength. The result is shown in FIG. 16, DFPD1-9, DFPD1-10, DFPD1-11, DFPD1-12 and DFPD1-13 can inhibit the binding of PD-1 and PD-L1.

PD-1-His [2] = molecular target: T2, PD-1-His; assay: ELISA on coated PD-1-His (60 ng/well), anti-human Fc-HRP
Experimental: After washing five times with 300 μl/well PBST, the wells were blocked for two hours with 1% BSA-PBS at 37° C. Different dilution of the antibodies DFPD1-9, DFPD1-10, DFPD1-11, DFPD1-12 and DFPD1-13 were added. The highest concentration of these five kinds of antibodies is 16 μg/mL, diluted for 4 times to 11 gradients, and the last well was used as the negative control which was added PBS diluent only. After incubating at 37° C. for one hour, the wells were washed five times with 300 μL/well of PBST, then adding the anti-human Fc-HRP secondary antibodies diluted at 1:40000 with 1% BSA-PBS, incubating at 37° C. for one hour. After staining with TMB stain solution kit, 100 μL/well, for 8 minutes at room temperature, the reaction was stopped with 50 µL of 2 mol/L H₂SO₄/well, and the optical density was determined at 450 nm and 630 nm wavelength.

[3] = molecular target: T3, PD-1 (analyte in the BIAcore X100 assay) (UniProt Q15116 25-167, limits assumed); assay: SPR, BIAcore X100, antibody captured by anti-human IgG on CM5 chip, PD-1 as analyte
T3 construct: also called Programmed Cell Death 1
T3 sequence (Q15116 25-167 limits assumed): as above
Experimental: The affinity of the antibodies were determined by ligand-capture method. Anti-human IgG was coupled to the surface of CM5 chip, and DFPD1-9, DFPD1-10, DFPD1-11, DFPD1-12 and DFPD1-13 were diluted respectively to ensure the capturing about 300 RU of the antibody by the anti-human IgG.

T1 sequence (chain, as listed by the source limits assumed): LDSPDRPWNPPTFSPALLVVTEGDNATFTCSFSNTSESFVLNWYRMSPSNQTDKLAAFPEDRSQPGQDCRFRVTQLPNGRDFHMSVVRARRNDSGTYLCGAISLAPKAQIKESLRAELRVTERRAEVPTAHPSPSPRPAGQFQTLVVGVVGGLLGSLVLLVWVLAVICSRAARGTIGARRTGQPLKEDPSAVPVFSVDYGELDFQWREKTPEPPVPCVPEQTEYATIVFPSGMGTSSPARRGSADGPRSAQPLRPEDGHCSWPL

B1: DFPD1-9 full-length anti-PD-1 monoclonal antibody (antibody, human IgG4 S228P, kappa, V domains shown)
VH: QVQLVESGGGVVQPGRSLRLDCKASGITFSNYGMHWVRQAPGKGLEWVAVIWYDSSRKYYADSVKGRFTISRDNSKNTLFLQMNSLRAEDTAVYYCATNNDYWGQGTLVTVSS
VL: DIQMTQSPSSLSASVGDRVTITCRASQSIHNYLDWYQQKPGKAPKLLIYNASTRATGVPSRFSGSGSGTDFTLTISSLQPEDFATYYCQQELHLPLTFGQGTKVEIKR
notes: Expressed in HEK293E cells and purified on protein A
EC50 (read off the curve) (PD-1 on PD1-CHO cells): ~2 nM
IC50 (read off the curve) (PD-1-His [1]): ~0.1 µg/mL
EC50 (read off the curve) (PD-1-His [2]): ~0.006 µg/mL
Kd [3]: 6.43 nM
koff [3]: 0.000105 s⁻¹
kon [3]: 16300 M⁻¹ s⁻¹

B2: DFPD1-13 full-length anti-PD-1 monoclonal antibody (antibody, human IgG4 S228P, kappa, V domains shown)
VH: QVQLVESGGGVVQPGRSLRLDCKASGITFSNNGMHWVRQAPGKGLEWVAVIWYDSSRKYYADSVKGRFTISRDNSKNTLFLQMNSLRAEDTAVYYCATNNDYWGQGTLVTVSS
VL: DIQMTQSPSSLSASVGDRVTITCRASQSVSNYLDWYQQKPGKAPKLLIYDASTRATGVPSRFSGSGSGTDFTLTISSLQPEDFATYYCQQNMQLPLTFGQGTKVEIKR
notes: as for B1
EC50 (read off the curve) (PD-1 on PD1-CHO cells): ~2 nM
IC50 (read off the curve) (PD-1-His [1]): ~0.08 µg/mL
EC50 (read off the curve) (PD-1-His [2]): ~0.008 µg/mL
Kd [3]: 9.5 nM
koff [3]: 0.000108 s⁻¹
kon [3]: 18100 M⁻¹ s⁻¹

B3: DFPD1-12 full-length anti-PD-1 monoclonal antibody (antibody, human IgG4 S228P, kappa, V domains shown)
VH: QVQLVESGGGVVQPGRSLRLDCKASGITFSNYGMHWVRQAPGKGLEWVAVIWYDGSKKYYADSVKGRFTISRDNSKNTLFLQMNSLRAEDTAVYYCATNNDYWGQGTLVTVSS
VL: DIQMTQSPSSLSASVGDRVTITCRASQSIHNYLDWYQQKPGKAPKLLIYNASTRATGVPSRFSGSGSGTDFTLTISSLQPEDFATYYCQQELHLPLTFGQGTKVEIKR
notes: as for B1
EC50 (read off the curve) (PD-1 on PD1-CHO cells): ~2 nM
IC50 (read off the curve) (PD-1-His [1]): ~0.05 µg/mL
EC50 (read off the curve) (PD-1-His [2]): ~0.006 µg/mL
Kd [3]: 22.4 nM
koff [3]: 0.000298 s⁻¹
kon [3]: 13300 M⁻¹ s⁻¹

B4: DFPD1-10 full-length anti-PD-1 monoclonal antibody (antibody, human IgG4 S228P, kappa, V domains shown)
VH: QVQLVESGGGVVQPGRSLRLDCKASGITFSNYGMHWVRQAPGKGLEWVAVIWYDSSRKYYADSVKGRFTISRDNSKNTLFLQMNSLRAEDTAVYYCATNNDYWGQGTLVTVSS
VL: DIQMTQSPSSLSASVGDRVTITCRASQSVSNYLDWYQQKPGKAPKLLIYDASTRATGVPSRFSGSGSGTDFTLTISSLQPEDFATYYCQQNMQLPLTFGQGTKVEIKR
notes: as for B1
EC50 (read off the curve) (PD-1 on PD1-CHO cells): ~0.9 nM
IC50 (read off the curve) (PD-1-His [1]): ~0.1 µg/mL
EC50 (read off the curve) (PD-1-His [2]): ~0.007 µg/mL
Kd [3]: 3.96 nM
koff [3]: 0.00013 s⁻¹
kon [3]: 32800 M⁻¹ s⁻¹

B5: DFPD1-11 full-length anti-PD-1 monoclonal antibody (antibody, human IgG4 S228P, kappa, V domains shown)
VH: QVQLVESGGGVVQPGRSLRLDCKASGITFSNNGMHWVRQAPGKGLEWVAVIWYDSSRKYYADSVKGRFTISRDNSKNTLFLQMNSLRAEDTAVYYCATNNDYWGQGTLVTVSS
VL: DIQMTQSPSSLSASVGDRVTITCRASQSIHNYLDWYQQKPGKAPKLLIYNASTRATGVPSRFSGSGSGTDFTLTISSLQPEDFATYYCQQELHLPLTFGQGTKVEIKR
notes: as for B1
EC50 (read off the curve) (PD-1 on PD1-CHO cells): ~4 nM
IC50 (read off the curve) (PD-1-His [1]): ~0.07 µg/mL
EC50 (read off the curve) (PD-1-His [2]): ~0.006 µg/mL
Kd [3]: 10.8 nM
koff [3]: 0.000102 s⁻¹
kon [3]: 9360 M⁻¹ s⁻¹
